The assay deals with T1, GST-fusion protein containing the PDZ domain of Dsh (Drosophila, UniProt P51140 250-338).
T1 construct: One of the smaller segments of the DM region made as GST fusions; not shown: glutathione S-transferase (GST) from a GST expression vector
T1 chain: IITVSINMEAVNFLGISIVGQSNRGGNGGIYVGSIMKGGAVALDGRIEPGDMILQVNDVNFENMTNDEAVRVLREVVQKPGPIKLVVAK
As to the kind of experiment: GST pull-down with segments of the DM region; in vitro kinase assay. On the procedure:
Lysates in buffer A with PIC were incubated with anti-Dsh or anti-DAK antibodies for 2-4 hours at 4° C. The immune complexes were collected by incubation with protein-A beads for 2 hours at 4° C., followed by centrifugation. The immunoprecipitates were then washed three times for 5-10 minutes each with Buffer A and subjected to SDS-PAGE or in vitro kinase assay. For precipitation by GST fusion proteins containing various regions of Dsh, lysates in buffer A with PIC were incubated for 2-4 hours at 4° C. with fusion proteins immobilized on glutathione agarose beads, followed by brief centrifugation. The glutathione beads were then washed three time for 5-10 minutes each with Buffer A and subjected to in vitro kinase assay, as described below.
The DAK activity was determined by a solid phase in vitro kinase assay after being brought down by immunoprecipitation (IP) or GST precipitation. The washed protein A or glutathione beads were then washed once with kinase buffer (50 mM Tris (pH 7.6), 10 mM MgCl₂) for 5 minutes at 4° C. The kinase reactions were carried out at room temperature for 30 minutes in a reaction volume of 20 μl containing 5:1 washed IP or GST beads, 1 μl [γ-³²P] ATP (10 μCi at 5000 Ci/mmol, Amersham) and 14 μl kinase buffer. […] The membranes were exposed to X-ray films or quantitated as indicated. […]

This note sets out measurements from patent US20040005688A1 (University of California, published 2004).

B1: Dishevelled Associated Kinase (DAK), endogenous kinase activity from Drosophila embryo and Clone-8 cell lysates (enzyme)
chain: MSTAMRTTLQSVPEALPADSVSNGTASNVAAPAAPVSSATNAVPPLAAVSSTTATYATNSISTSSHSVKDQQQQQQQQQHDSANANIVSLPPTTTPVANTNTMMPIVTSSNSATSNSTAATPTPASGAAATGGVGSVSQGPATVSASAANTNHSHQHSHQHHHHVANNMTTDGARLSSNNSAVVASSAINHHHHHTPGSGVAPTVNKNVLSTHSAHPSAIKQRTSSAKGSPNMQMRSSAPMRWRATEEHIGKYKLIKTIGKGNFAKVKLAKHLPTGKEVAIKIIDKTQLNPGSLQKLFREVRIMKMLDHPNIVKLFQVIETEKTLYLIMEYASGGEVFDYLVLHGRMKEKEARVKFRQIVSAVQYCHQKRIIHRDLKAENLLLDSELNIKIADFGFSNEFTPGSKLDTFCGSPPYAAPELFQGKKYDGPEVDVWSLGVILYTLVSGSLPFDGSTLRELRERVLRGKYRIPFYMSTDCENLLRKFLVLNPAKRASLETIMGDKWMNMGFEEDELKPYIEPKADLADPKRIEALVAMGYNRSEIEASLSQVRYDDVFATYLLLGRKSTDPESDGSRSGSSLSLRNISGNDAGANAGSASVQSPTHRGVHRSISASSTKPSRRASSGAETLRVGPTNAAATVAAATGAVGAVNPSNNYNAAGSAADRASVGSNFKRQNTIDSATIKENTARLAAQNQRPASATQKMLTTADTTLNSPAKPRTATKYDPTNGNRTVSGTSGIIPRRSTTLYEKTSSTEKTNVIPAETKMASAVKSSRHFPRNVPSRSTFHSGQTRARNNTALEYSGTSGASGDSSHPGRMSFFSKLSSRFSKRPNQ
notes: Native activity from lysates, not a defined construct; also called Dishevelled associated kinase activity; Dsh associated kinase activity
In the case of B1, the binding result is recorded as “no binding”.
